Here are results for seven molecules from PMC4942675 (Molecular Cell, 2016).

Changes are numbered by the printed parent chain. Like-named read-outs stand apart in the source and are kept apart here.

The target of assay [1] is T1, Rrp43 (subunit of Exo10 in the crystal structure) (S. cerevisiae, UniProt P25359).
T1 sequence: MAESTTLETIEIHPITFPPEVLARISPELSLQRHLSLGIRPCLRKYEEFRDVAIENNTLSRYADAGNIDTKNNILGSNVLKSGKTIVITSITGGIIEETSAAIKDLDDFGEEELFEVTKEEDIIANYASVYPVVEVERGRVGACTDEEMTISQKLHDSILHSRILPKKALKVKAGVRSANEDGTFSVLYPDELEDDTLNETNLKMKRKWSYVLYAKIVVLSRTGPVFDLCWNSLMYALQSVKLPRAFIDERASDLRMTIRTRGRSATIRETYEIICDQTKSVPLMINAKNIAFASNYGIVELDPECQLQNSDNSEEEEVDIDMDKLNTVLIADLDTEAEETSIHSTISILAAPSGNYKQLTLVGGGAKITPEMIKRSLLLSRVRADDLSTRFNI
Put plainly: crystal structure.

The target of assay [2] is T2, S. cerevisiae Exo9 (nine-subunit exosome core, no Rrp44 subunit) (S. cerevisiae, UniProt P46948;Q05636;P53256;P25359;P48240;Q12277;P38792;Q08285;P53859). Put plainly: MST.
Assay [3] deals with T2, S. cerevisiae Exo9 (nine-subunit …). Put plainly: pull-down.
The target is the same in assay [4]. Put plainly: pull-down. The source holds these as a separate data set.

B1: Mtr3 (subunit of Exo10 in the crystal structure) (natural protein)
chain: MNVQDRRRLLGPAAAKPMAFSNTTTHVPEKKSTDLTPKGNESEQELSLHTGFIENCNGSALVEARSLGHQTSLITAVYGPRSIRGSFTSQGTISIQLKNGLLEKYNTNELKEVSSFLMGIFNSVVNLSRYPKSGIDIFVYLTYDKDLTNNPQDDDSQSKMMSSQISSLIPHCITSITLALADAGIELVDMAGAGEANGTVVSFIKNGEEIVGFWKDDGDDEDLLECLDRCKEQYNRYRDLMISCLMNQET
On to B1, for which the binding result in assay [1] was “binds”.

B2: GFP-Ski7_(exomut-1) (Trp125Asp, Ile128Asp) (domain or fragment)
chain: DDKLNLEESDKADKEMNHYCFLKNDPCINQTDDFAFTNFIIKDKKNSLSTSIPLSSQNSSFLSLKKHNNELLGIFVPCNLPKTTRKVAIENFNRPSPDDIIQSAQLNAFN
As to B2, the Kd (commonly the constant that tells how readily two partners part at equilibrium) in assay [2] turned out to be 50 nM.

B3: GFP-Ski7_(exomut-2) (Phe149Asp, Phe151Asp, Phe154Asp) (domain or fragment)
chain: B2 chain with D10W, D13I, F34D, F36D, F39D
For B3, the binding result in assay [3] is “binds”.

B4: GFP-tagged Ski7exo (domain or fragment)
chain: B2 chain with D10W, D13I
On to B4, for which, in assay [2], the dissociation constant (Kd) is ~5 nM.

B5: Ski7 residues 116-235 (Exo9-interacting domain) (domain or fragment)
chain: DDKLNLEESWKAIKEMNHYCFLKNDPCINQTDDFAFTNFIIKDKKNSLSTSIPLSSQNSSFLSLKKHNNELLGIFVPCNLPKTTRKVAIENFNRPSPDDIIQSAQLNAFNEKLENLNIKS
Regarding B5, the binding result in assay [4] was “binds”.

B6: GFP-tagged Rrp6exo (GFP-Sumo-Rrp6C, Rrp6 residues 518-693) (domain or fragment)
chain: EATPIPSSETKADGILLETISVPQIRDVMERFSVLCNSNISKSRAKPVTNSSILLGKILPREEHDIAYSKDGLPNKVKTEDIRIRAQNFKSALANLEDIIFEIEKPLVVPVKLEEIKTVDPASAPNHSPEIDNLDDLVVLKKKNIQKKQPAKEKGVTEKDAVDYSKIPNILSNKPG
In the case of B6, the Kd in assay [2] is ~10 nM.

B7: GFP-Ski7_(exomut-3) (Ile189Asp, Phe190Asp) (domain or fragment)
chain: B2 chain with D10W, D13I, I74D, F75D
As for B7, the binding result in assay [3] is recorded as “binds”.
